Among the data in PMC11058771 are stoichiometry N values, retold here.

This test addresses mouse teneurin-3 A1B1 complete extracellular domain (ECD, residues 342-2715) (mouse) (UniProt Q9WTS6). Nature of the test: SEC-MALS; purified ECD, 0.5 mg/mL in 20 mM HEPES pH 7.8, 150 mM NaCl, 2 mM CaCl2, Superose6 Increase 10/300 GL; also SDS-PAGE with or without beta-mercaptoethanol; covalent (disulphide-linked) dimer.

Take “mouse teneurin-3 A1B1 complete extracellular domain (ECD, residues 342-2715), Q9WTS6-1 342-2715”: the stoichiometry N came to 2.
